Reference: PMC10938136

Biological target: Komagataella phaffii Ero1 (Komagataella phaffii) (UniProt F2QNN1)
UniProt F2QNN1, sequence (F2QNN1 entry or part of it): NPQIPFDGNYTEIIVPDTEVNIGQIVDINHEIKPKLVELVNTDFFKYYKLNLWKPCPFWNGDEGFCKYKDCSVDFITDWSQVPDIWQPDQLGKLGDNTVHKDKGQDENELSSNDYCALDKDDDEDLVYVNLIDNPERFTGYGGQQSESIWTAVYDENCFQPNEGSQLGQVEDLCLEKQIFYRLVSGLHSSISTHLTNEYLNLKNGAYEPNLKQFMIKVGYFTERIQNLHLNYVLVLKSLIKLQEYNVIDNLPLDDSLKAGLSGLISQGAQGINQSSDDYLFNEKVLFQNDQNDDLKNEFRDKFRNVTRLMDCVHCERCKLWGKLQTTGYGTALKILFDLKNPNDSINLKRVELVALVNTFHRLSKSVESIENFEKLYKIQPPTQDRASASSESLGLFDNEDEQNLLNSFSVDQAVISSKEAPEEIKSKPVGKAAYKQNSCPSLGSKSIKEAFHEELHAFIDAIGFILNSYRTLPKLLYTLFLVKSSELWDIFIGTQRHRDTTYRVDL

Q: Which results are given for “Komagataella phaffii Erp41, full length, purified (enzyme)”?
A: K M PDI for Erp41 as substrate of 1 μM Ero1–Pdi1 complex, oxygen consumption assay (titration of Erp41, 10 mM GSH): 7.07 µM; kcat of oxygen consumption, 1 μM Ero1–Pdi1 complex plus 10 μM Erp41: 1.95 s⁻¹
